Columns and labels:
[1] = target: CD11b/CD18 on human neutrophils (human) (UniProt P05107); assay: time course of biotinylated NIF binding to neutrophils at 4 C, FACS
[2] = target: CD11b/CD18 on human neutrophils (human) (UniProt P05107); assay: biotinylated rNIF on f-met-leu-phe activated against resting neutrophils, FACS
[3] = target: CD11b/CD18 on human neutrophils (human) (UniProt P05107); assay: dissociation of biotinylated rNIF from washed neutrophils at 4 C, FACS
[4] = target: CD11b/CD18 on human neutrophils (human) (UniProt P05107); assay: Scatchard plot, biotinylated rNIF on resting or activated neutrophils at 4 C, FACS
[5] = target: recombinant CD11b A domain (human) (UniProt P11215); assay: Scatchard analysis of biotinylated rNIF binding to immobilized rA-domain
[6] = target: recombinant human CD11b/CD18 expressed in COS cells (human) (UniProt P05107); assay: rNIF against EAiC3b binding to recombinant CD11b/CD18 on COS cells, fluorescence
[7] = target: recombinant Ancylostoma caninum neutrophil adhesion inhibitor (NIF) (Ancylostoma caninum); assay: competition: fluid-phase r11bA against biotinylated rNIF binding to human neutrophils, FACS
[8] = target: recombinant Ancylostoma caninum neutrophil adhesion inhibitor (NIF) (Ancylostoma caninum); assay: competition: fluid-phase r11bA against biotinylated rNIF binding to immobilized r11bA, plate assay
[9] = target: complement iC3b on erythrocytes (EAiC3b) (human) (UniProt P01024); assay: fluid-phase rA-domain against EAiC3b binding to immobilized rA-domain
complement iC3b on erythrocytes (EAiC3b) (human), sequence (P01024 23-667 limits assumed, chain 1 of 3): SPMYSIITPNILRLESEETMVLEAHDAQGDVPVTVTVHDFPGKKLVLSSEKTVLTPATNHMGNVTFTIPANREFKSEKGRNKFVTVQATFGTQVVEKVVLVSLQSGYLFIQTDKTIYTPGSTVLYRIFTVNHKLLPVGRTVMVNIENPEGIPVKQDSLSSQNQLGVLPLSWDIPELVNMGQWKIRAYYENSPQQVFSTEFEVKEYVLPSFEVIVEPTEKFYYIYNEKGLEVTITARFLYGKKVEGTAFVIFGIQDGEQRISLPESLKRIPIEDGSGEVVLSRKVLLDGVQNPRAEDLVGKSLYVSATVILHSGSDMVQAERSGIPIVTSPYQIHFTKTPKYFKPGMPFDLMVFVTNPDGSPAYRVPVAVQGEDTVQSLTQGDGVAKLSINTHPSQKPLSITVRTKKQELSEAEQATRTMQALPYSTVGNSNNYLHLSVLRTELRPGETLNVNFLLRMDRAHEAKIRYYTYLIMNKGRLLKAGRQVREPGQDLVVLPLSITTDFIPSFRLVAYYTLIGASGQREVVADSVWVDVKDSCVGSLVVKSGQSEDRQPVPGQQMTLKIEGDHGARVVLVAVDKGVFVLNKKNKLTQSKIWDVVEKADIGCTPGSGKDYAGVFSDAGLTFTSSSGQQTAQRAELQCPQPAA
complement iC3b on erythrocytes (EAiC3b) (human), sequence (P01024 749-1303 limits assumed, chain 2 of 3): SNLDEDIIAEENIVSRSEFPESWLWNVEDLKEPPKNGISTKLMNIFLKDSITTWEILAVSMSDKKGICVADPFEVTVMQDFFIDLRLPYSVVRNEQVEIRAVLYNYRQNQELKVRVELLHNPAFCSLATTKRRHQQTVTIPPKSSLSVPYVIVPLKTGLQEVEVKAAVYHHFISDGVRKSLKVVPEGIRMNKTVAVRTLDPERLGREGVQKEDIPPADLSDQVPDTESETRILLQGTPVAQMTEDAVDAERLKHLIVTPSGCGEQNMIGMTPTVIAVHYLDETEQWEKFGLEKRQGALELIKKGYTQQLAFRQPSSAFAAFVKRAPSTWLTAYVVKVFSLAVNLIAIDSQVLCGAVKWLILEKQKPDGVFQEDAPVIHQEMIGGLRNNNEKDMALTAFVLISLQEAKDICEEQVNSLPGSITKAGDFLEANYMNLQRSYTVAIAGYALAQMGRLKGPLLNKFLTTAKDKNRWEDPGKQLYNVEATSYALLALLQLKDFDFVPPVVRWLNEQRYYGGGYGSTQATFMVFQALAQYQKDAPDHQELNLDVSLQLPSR
complement iC3b on erythrocytes (EAiC3b) (human), sequence (P01024 1321-1663 limits assumed, chain 3 of 3): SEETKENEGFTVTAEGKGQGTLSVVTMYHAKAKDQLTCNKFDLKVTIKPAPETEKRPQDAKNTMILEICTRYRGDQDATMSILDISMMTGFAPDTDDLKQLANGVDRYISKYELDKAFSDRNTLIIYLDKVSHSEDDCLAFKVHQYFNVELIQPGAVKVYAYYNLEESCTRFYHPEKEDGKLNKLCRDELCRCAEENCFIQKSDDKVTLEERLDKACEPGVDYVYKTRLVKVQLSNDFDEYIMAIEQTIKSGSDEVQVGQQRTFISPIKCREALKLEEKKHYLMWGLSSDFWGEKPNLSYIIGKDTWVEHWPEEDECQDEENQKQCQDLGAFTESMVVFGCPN

Substance: recombinant Ancylostoma caninum neutrophil adhesion inhibitor (NIF) (ligand)
- t1/2 of association [1]: 0.25 h
- fold increase in NIF binding to activated vs resting cells [2]: 12 fold
- t1/2 of dissociation [3]: 7.6 h
- Kd [4]: 0.00035 to 0.0013 µM
- Kd [5]: 0.001 µM
- IC50 [6]: 0.005 µM
- concentration for complete inhibition [6]: 3 mg/mL

Substance: recombinant CD11b A domain (from UniProt P11215 144-337) (receptor)
- IC50 [7]: 0.001 µM
- IC50 [8]: 0.001 µM
- IC50 [9]: 1000 µM

Reference: patent publication US20050227296A1, “Method for indentifying integrin antagonists” (The General Hospital Corporation, a Massachusetts …, priority 1988, published 2005)
